Experimental data published in patent publication US20210355235A1, “Compositions and Methods For Treating Cancer with Anti-Renalase antibodies and Anti-PD1 antibodies” (YALE UNIVERSITY, priority 2017, published 2021).

Legend:
Format in all cases: cell-based, human
Panc1 cells = assay: western blot of p38 and STAT3 phosphorylation
Excerpt: FIG. 27, comprising FIGS. 27A through 27E, is a series of images and charts showing the interaction between RNLS and STAT3, and the mechanistic model of inhibition by m28-RNLS. FIG. 27A is an image showing activation of STAT3 by RNLS in Panc1 cells; Panc1 cells in culture treated with either BSA or RNLS, and STAT3 phosphorylation assessed by western blot; p-Ser^727-STAT3: phosphorylation at serine 727, p-Y^705-STAT3: phosphorylation at tyrosine 705; representative study. FIG. 27B is a chart depicting the quantification of STAT3 phosphorylation with RNLS; signals normalized to total STAT3; n=3, *=P<0.05. […] FIG. 27D is a chart showing the quantification of STAT3 phosphorylation with m28-RNLS; signals normalized to GAPDH loading control; n=3, *=P<0.05. FIG. 27E depicts the proposed mechanistic model for antitumor activity of m28-RNLS.

MiaPaCa2 cells = assay: FACS cell cycle analysis with rRNLS; conditions: 30 μg/ml
Method: For cell cycle analysis, cultured cells were dissociated using 10 mM EDTA, fixed with ice-cold 70% ethanol, digested with RNAse A, and stained with propidium iodide. Propidium staining was detected using a BD FACSCalibur flow cytometer (BD Biosciences, San Jose, Calif., USA), and analyzed using CellQuest software.

[1] = tested on: A375.S2, MeWo, SkMel5 and SkMel28 cells; assay: survival of serum-starved melanoma cells, WST-1; conditions: 30 ug/ml, 72 hrs
Method: Total cell number and percentage of live cells were assessed by trypan blue exclusion, and cells were counted using a BioRad TC10 automated cell counter. For additional studies, cell viability was determined using WST-1 reagent (Roche Diagnostics, Indianapolis, Ind., USA) according to the manufacturers' instruction. Absorbances were read using a microplate reader (Power Waves XS, BioTek Instruments, Winooski, Vt., USA).
RNLS-mediated signaling is anti-apoptotic, and protects normal cells exposed to toxic stress from apoptotic death (Wang et al., 2014 J Am Soc Nephrol.; Lee et al., 2013 J Am Soc Nephrol. 24:445-55). To explore if RNLS signaling favored the survival of cancer cells, either recombinant RNLS (rRNLS) or bovine serum albumin (BSA) was added to serum-starved melanoma cells (A375.S2, MeWo, SkMel5, and SkMel28) in culture, and cell viability was determined. […] The total cell number and percentage of live cells of those treated with RNLS were counted to determine if the apparent increase in proliferative rate was due an increase in cell proliferation or to a decrease in the rate of apoptosis.

HK-2 cells = assay: STAT phosphorylation in HK-2 cells treated with RNLS
Excerpt: STAT3 binds to the promoter region of the RNLS gene and increases its expression (Sonawane et al., 2014 Biochemistry. 53(44):6878-6892).

B1: rRNLS: recombinant human RNLS (renalase) (protein, UniProt Q5VYX0 18-342, looked up)
Renalase: ALLRRQTSGPLYLAVWDKAEDSGGRMTTACSPHNPQCTADLGAQYITCTPHYAKKHQRFYDELLAYGVLRPLSSPIEGMVMKEGDCNFVAPQGISSIIKHYLKESGAEVYFRHRVTQINLRDDKWEVSKQTGSPEQFDLIVLTMPVPEILQLQGDITTLISECQRQQLEAVSYSSRYALGLFYEAGTKIDVPWAGQYITSNPCIRFVSIDNKKRNIESSEIGPSLVIHTTVPFGVTYLEHSIEDVQELVFQQLENILPGLPQPIATKCQKWRHSQVTNAAANCPGQMTLHHKPFLACGGDGFTQSNFDGCITSALCVLEALKNYI
phosphorylated STAT3 (p-Ser727-STAT3 and p-Y705-STAT3) after RNLS (Panc1 cells): rapid increase | cell cycle progression compared to BSA (MiaPaCa2 cells): no effect on cell cycle progression | survival of serum-starved melanoma cells compared to BSA [1]: markedly increased the survival | STAT1 (HK-2 cells): unaffected | increase of STAT3 phosphorylation at serine 727 (p-Ser727-STAT3) (HK-2 cells): 2 fold | increase of STAT3 phosphorylation at tyrosine 705 (p-Y705-STAT3) (HK-2 cells): 4 fold
